Measured values as given in US20170306005A1 (NASCIENT, published 2017).

Assays:
[1] = biological target: T1, human tenascin-C rCd4-His-FBG (rat; human, UniProt P05540 207-392, limits assumed); assay: SPR, captured purified IgG4, 37 C
T1 construct: domain: domains 3 and 4; C-terminal FBG fusion; biotinylated in the ELISA and HTRF screens; also called Hu TNC; human TNC rCd4-His-FBG; not shown: 6His tag
T1 sequence (chain (part 1 of 2)): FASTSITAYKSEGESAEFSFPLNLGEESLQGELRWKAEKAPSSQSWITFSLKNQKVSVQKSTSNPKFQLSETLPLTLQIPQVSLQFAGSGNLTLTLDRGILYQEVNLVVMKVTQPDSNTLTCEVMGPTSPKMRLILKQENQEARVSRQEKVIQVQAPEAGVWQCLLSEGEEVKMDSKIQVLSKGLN
T1 sequence (chain (part 2 of 2)): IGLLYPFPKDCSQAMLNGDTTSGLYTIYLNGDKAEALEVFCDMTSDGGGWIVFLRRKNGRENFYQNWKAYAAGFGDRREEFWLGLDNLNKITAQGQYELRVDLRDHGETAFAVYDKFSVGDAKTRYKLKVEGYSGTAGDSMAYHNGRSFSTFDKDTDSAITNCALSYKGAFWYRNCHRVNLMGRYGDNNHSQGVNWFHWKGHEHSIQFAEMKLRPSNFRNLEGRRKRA

[2] = biological target: T2, mouse tenascin-C rCd4-His-FBG (rat; mouse, UniProt P05540 207-392, limits assumed); assay: SPR, captured purified IgG4, 37 C
T2 construct: domain: domains 3 and 4; C-terminal FBG fusion; biotinylated in the ELISA screen; also called Mu TNC; mouse TNC rCd4-His-FBG; not shown: 6His tag
T2 sequence (chain (part 1 of 2)): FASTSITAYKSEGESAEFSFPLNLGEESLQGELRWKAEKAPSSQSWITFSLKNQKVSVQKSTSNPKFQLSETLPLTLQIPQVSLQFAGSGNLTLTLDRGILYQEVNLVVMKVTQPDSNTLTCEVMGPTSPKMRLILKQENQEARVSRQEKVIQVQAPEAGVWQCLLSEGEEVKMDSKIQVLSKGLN
T2 sequence (chain (part 2 of 2)): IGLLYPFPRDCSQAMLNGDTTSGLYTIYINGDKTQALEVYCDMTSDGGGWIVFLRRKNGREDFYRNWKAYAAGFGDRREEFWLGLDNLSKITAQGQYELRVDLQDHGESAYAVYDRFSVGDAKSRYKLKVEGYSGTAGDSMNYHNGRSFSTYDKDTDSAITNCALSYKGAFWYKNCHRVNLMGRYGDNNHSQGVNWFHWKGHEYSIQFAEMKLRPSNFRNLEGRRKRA

[3] = biological target: T3, dog tenascin-C rCD4-His-FBG (rat; dog, UniProt P05540 207-392, limits assumed); assay: SPR, captured purified IgG4, 37 C
T3 construct: domain: domains 3 and 4; C-terminal FBG fusion; also called Dog TNC; not shown: 6His tag
T3 sequence (chain (part 1 of 2)): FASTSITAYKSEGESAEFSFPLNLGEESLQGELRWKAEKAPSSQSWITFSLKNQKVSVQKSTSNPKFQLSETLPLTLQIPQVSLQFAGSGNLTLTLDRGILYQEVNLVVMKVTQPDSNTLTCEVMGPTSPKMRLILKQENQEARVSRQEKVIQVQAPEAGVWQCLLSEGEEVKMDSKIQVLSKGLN
T3 sequence (chain (part 2 of 2)): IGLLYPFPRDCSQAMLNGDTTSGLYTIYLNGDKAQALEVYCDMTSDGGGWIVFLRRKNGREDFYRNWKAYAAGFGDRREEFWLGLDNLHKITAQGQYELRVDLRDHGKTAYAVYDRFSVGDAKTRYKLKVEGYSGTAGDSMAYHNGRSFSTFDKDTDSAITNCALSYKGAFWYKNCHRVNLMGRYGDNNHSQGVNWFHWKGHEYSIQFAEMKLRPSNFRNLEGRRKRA

[4] = biological target: T4, human tenascin-R rCd4-His-FBG (rat; human, UniProt P05540 207-392, limits assumed); assay: SPR, captured purified IgG4, 37 C; purified IgG4, full kinetics, SPR at 37 C
T4 construct: domain: domains 3 and 4; C-terminal FBG fusion; also called Hu TNR; human TNR rCd4-His-FBG; not shown: 6His tag
T4 sequence (chain (part 1 of 2)): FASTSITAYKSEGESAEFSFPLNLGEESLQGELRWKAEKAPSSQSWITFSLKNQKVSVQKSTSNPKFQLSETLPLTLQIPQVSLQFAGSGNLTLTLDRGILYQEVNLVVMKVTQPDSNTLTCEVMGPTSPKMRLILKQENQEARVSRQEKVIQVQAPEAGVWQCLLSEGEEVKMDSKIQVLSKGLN
T4 sequence (chain (part 2 of 2)): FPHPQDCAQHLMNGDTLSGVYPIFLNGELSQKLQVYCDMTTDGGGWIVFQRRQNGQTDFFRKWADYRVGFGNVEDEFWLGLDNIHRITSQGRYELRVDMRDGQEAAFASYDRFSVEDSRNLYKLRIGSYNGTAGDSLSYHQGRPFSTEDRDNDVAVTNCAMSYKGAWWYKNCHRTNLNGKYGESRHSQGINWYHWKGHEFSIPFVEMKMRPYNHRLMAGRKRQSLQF
Experimental: Detailed kinetic parameters were evaluated for the 9 prioritised IgG4 antibodies. Binding characteristics were determined for interaction with human, rat and dog TNC rCD4-His-FBG, and human TNR rCD4-His-FBG. Kinetic assays followed essentially the same protocols as for the off-rate determinations described above, with some modifications as follows. […] Purified anti-FBG IgG4 was diluted to a concentration of 3.5 nM in PBS, pH 7.4, 0.05% Tween-20 and injected into FC2 at a flow rate of 10 μl/min, 60 s contact time. […] Antigens were prepared by doubling dilution in PBS, pH 7.4, 0.05% Tween-20 (highest concentration 100 nM except mouse rCD4-His-FBG which was 7 nM). Assays were performed at 37° C. (30 μl/min, 120 s contact time; mouse rCD4-His-FBGFBG 10 μl/min, 60 s contact time), with both the flow cell and injection chamber equilibrated to this temperature. As before, kinetic parameters were determined by reference cell subtraction and fitting the sensogram experimental data assuming a 1:1 interaction using BIAevaluation software (GE, BR-1005-97).

[5] = biological target: T4, human tenascin-R rCd4-His-FBG; assay: SPR off-rate screen, captured IgG4 supernatant, 25 C; off-rate screen, IgG4 in culture supernatant, 100 nM TNR antigen, 25 C
Experimental: The 31 scFv of interest were sub-cloned into a human IgG4 expression vector for generation of antibodies as human IgG4 with a hinge-stabilising mutation (S241P; Angal et al, 1993). […] Briefly, surface plasmon resonance (SPR) experiments were performed using a BIAcore T100 instrument and followed the protocol according to the Human antibody capture kit protocol (GE, BR-1008-39). For off-rate screening, 10,000 response units (RU) of anti-human Fc IgG (GE, BR-1008-39) was immobilised on flow-cells (FC1 and FC2) of a Series 5 CM5 dextran sensor chip (BR-1005-30) using EDC/NHS cross-linking chemistry according to the amine coupling kit protocol (GE, BR-1000-50). Culture supernatants containing expressed IgG4 were diluted 1:2 with 2×PBS-T and injected into FC2 (flowrate 5 μl/min, 60 s contact time) to enable antibody capture at 25° C. […] A fixed concentration of antigen (15 nM of human and mouse TNC rCd4-His-FBG and 100 nM of human TNR rCd4-His-FBG) was injected with a flow-path via FC 1 (reference flow cell) and FC 2 (antibody capture flow cell), with a flow rate of 30 μl/min, and the association and dissociation phases measured over 1 and 5 min time periods, respectively. […] Off rates were determined by reference cell subtraction and fitting the sensogram experimental data assuming a 1:1 interaction using BIAevaluation software (GE, BR-1005-97).

Kd [1]: 0.072 nM
koff [1]: 0.00083 s⁻¹
kon [1]: 1.16e+07 M⁻¹ s⁻¹
Kd [2]: 0.46 nM
koff [2]: 0.000445 s⁻¹
kon [2]: 972000 M⁻¹ s⁻¹
Kd [3]: 1.8 nM
koff [3]: 0.0108 s⁻¹
kon [3]: 5.97e+06 M⁻¹ s⁻¹
Kd [4]: 35.8 nM
koff [4]: 0.0431 s⁻¹
kon [4]: 1.2e+06 M⁻¹ s⁻¹
koff [5]: 0.012 s⁻¹
B1: 165_13_C3 human IgG4 (antibody, V domains shown)
VH: QVQLVESGGGLVQPGRSLRLSCAASGFTFDDYAMHWVRQAPGKGLEWVSGISGSGGSTYYADSVKGRFTISRDNAKNSLYLQMNSLRAEDTALYYCAKSYQSDEDAFDIWGQGTMVTVSS
VL: DIQMTQSPASLPTPVGDRVTITCRASQYIQGFLNWYQQKPGKAPKLLIYDASNLETGVPSRFSGSGSGTDFTLTISSLQPEDFATYYCQQSYSTPQTFGQGTKVDIKR
notes: also called IgG4 C3; C3 IgG4 MAb
